Values of other authors in paper PMC4482139.

What was measured:
nmMLCK1 (Homo sapiens) = nmMLCK1 (Homo sapiens) (UniProt Q15746)
nmMLCK2 (Homo sapiens) = nmMLCK2 (Homo sapiens) (UniProt Q15746)

## Cortactin (from UniProt Q14247)
nmMLCK1 (Homo sapiens)
  Kd: 1000 nM
nmMLCK2 (Homo sapiens)
  Kd: 250 nM
